4 molecules from US20250152742A1, “COMPOSITIONS AND METHODS FOR NEUROLOGICAL DISEASES” (Trames Bio, Inc., priority 2022, published 2025) can be followed below.

The assay has as its system engineered chimeric receptor SEQ ID NO: 33 and its mutants (human α7-nAChR ligand binding domain / human GlyRα1 ion pore domain) in Lenti-X 293T cells. Put plainly: YFP fluorescence quenching anion reporter plate reader assay (percent quench, EC50). Conditions: for YFP fluorescence quenching using CNL001 (percent quench): receptor named in row; for YFP fluorescence quenching using Varenicline, 3 nM var: ligand Varenicline 3 nM; for YFP fluorescence quenching using Varenicline, 30 nM var: ligand Varenicline 30 nM; for YFP fluorescence quenching using Varenicline, 300 nM var: ligand Varenicline 300 nM; for YFP fluorescence quenching using Varenicline, 500 nM var: ligand Varenicline 500 nM; for YFP fluorescence quenching using Varenicline, 1 uM var: ligand Varenicline 1 uM; for EC50: ligand TC-5619, YFP plate reader. It counts as cell-based. An outline of the steps: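 Percent quench compares mean YFP signal over the final 10 s with the 15 s baseline before ligand, added in iodide-containing extracellular solution (pH 7.2). Cells were LX293T carrying a YFP anion reporter, transiently transfected with the channel construct; plates were preincubated 30 min at 37 °C.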

Where [1] appears, read: 1 nM CNL001, first column so headed.
Where [2] appears, read: 1 nM CNL001, second column so headed.
Where [3] appears, read: 1 nM brd (TC-5619/Bradanicline).
Setting [4] is: 3 nM brd (TC-5619/Bradanicline).
[5] abbreviates: 10 nM CNL001, first column so headed.
Setting [6] is: 10 nM CNL001, second column so headed.
Setting [7] is: 10 nM brd (TC-5619/Bradanicline).
Setting [8] is: 30 nM brd (TC-5619/Bradanicline).
The mark [9] stands for this setting: 50 nM CNL001, first column so headed.
[10] abbreviates: 50 nM CNL001, second column so headed.
Where [11] appears, read: 100 nM CNL001, first column so headed.
Where [12] appears, read: 100 nM CNL001, second column so headed.
The mark [13] stands for this setting: 100 nM brd (TC-5619/Bradanicline).
Where [14] appears, read: 300 nM brd (TC-5619/Bradanicline).
Setting [15] is: 1 uM CNL001, first column so headed.
[16] abbreviates: 1 uM CNL001, second column so headed.

Residue numbers refer to the chain shown, from its start. Names and notes keep the numbering of the source.

As a reminder, the EC50 is the midpoint of the concentration-response curve. A higher EC50 goes with a less potent agent.

B1: CODA1048: engineered receptor: R101F, Y210F in SEQ ID NO: 33 (protein)
chain: MRCSPGGVWLALAASLLHVSLQGEFQRKLYKELVKNYNPLERPVANDSQPLTVYFSLSLLQIMDVDEKNQVLTTNIWLQMSWTDHYLQWNVSEYPGVKTVFFPDGQIWKPDILLYNSADERFDATFHTNVLVNSSGHCQYLPPGIFKSSCPMDLKNFPMDVQTCKLKFGSWSYGGWSLDLQMQEADISGYIPNGEWDLVGIPGKRSERFFECCKEPYPDVTFTVTMRRRMGYYLIQMYIPSLLIVILSWISFWINMDAAPARVGLGITTVLTMTTQSSGSRASLPKVSYVKAIDIWMAVCLLFVFSALLEYAAVNFVSRQHKELLRFRRKRRHHKSPMLNLFQEDEAGEGRFNFSAYGMGPACLQAKDGISVKGANNSNTTNPPPAPSKSPEEMRKLFIQRAKKIDKISRIGFPMAFLIFNMFYWIIYKIVRREDVHNQ
modifications: synthetic sequence of chimeric LGIC
With B1, the “YFP fluorescence quenching using CNL001 (percent quench)” value reads like this: under setting [1], 9.114%; under setting [2], 0.845%; under setting [5], 28.944%; under setting [6], 53.629%; under setting [9], 68.581%; under setting [10], 74.379%. Besides, the “YFP fluorescence quenching using CNL001 (percent quench)” value came out at 80.541% under setting [11], 80.774% under setting [12], 83.143% under setting [15] and 81.751% under setting [16]. In addition, the “YFP fluorescence quenching using TC-5619/Bradanicline (percent quench)” value is −2.084% under setting [3]; −9.098% under setting [4]; −2.587% under setting [7]; 55.818% under setting [8]; 76.957% under setting [13]; 74.268% under setting [14]. Besides, the “YFP fluorescence quenching using TC-6683 (percent quench)” value reads like this: (30 nM TC-6683) −29.055%; (300 nM TC-6683) −33.935%; (3 uM TC-6683) −24.613%; (30 uM TC-6683) −21.752%; (100 uM TC-6683) −22.815%. The “YFP fluorescence quenching using ABT-126 (percent quench)” value reads like this: (50 nM abt (ABT-126)) −23.28%; (100 nM abt (ABT-126)) −21.78%; (300 nM abt (ABT-126)) −19.35%; (1 uM abt (ABT-126)) −16.33%. Besides, the “YFP fluorescence quenching (percent quench)” value (100 uM ach (acetylcholine)) is listed as −17.31%; the “YFP fluorescence quenching (percent quench)” value (300 uM ach (acetylcholine)) is −13.7%; the “YFP fluorescence quenching (percent quench)” value (500 uM ach (acetylcholine)) is reported as −10.1%; the “YFP fluorescence quenching (percent quench)” value (1 mM ach (acetylcholine)) is on record as 5.53%; the “YFP fluorescence quenching (percent quench)” value (3 mM ach (acetylcholine)) is listed as 68.61%; the “YFP fluorescence quenching (percent quench)” value (10 mM ach (acetylcholine)) is listed as 78.22%. Moreover, the “YFP fluorescence quenching using Varenicline, 3 nM var” value is −17.119 (first column) and −13.234 (second column). Besides, the “YFP fluorescence quenching using Varenicline, 30 nM var” value is, setting by setting: (first column) −7.747; (second column) 4.193. Further, the “YFP fluorescence quenching using Varenicline, 300 nM var” value (shortened to “YFP fluorescence quenching … 300 nM var”) by setting is: (first column) 4.149; (second column) 1.512. Moreover, the “YFP fluorescence quenching using Varenicline, 500 nM var” value (shortened to “YFP fluorescence quenching … 500 nM var”) was −1.572 (first column) and 3.71 (second column). Also, the “YFP fluorescence quenching using Varenicline, 1 uM var” value by setting is: (first column) 8.414; (second column) 4.091.

B2: COAD1056 (protein)
chain: B1 chain with Y115E, F210W
modifications: synthetic sequence of chimeric LGIC
The molecule B2 gave a concentration for a half-maximal effect (EC50) of 25.1 nM.

B3: CODA1054: engineered receptor: R101M, L131F in SEQ ID NO: 33 (protein)
chain: B1 chain with F101M, L131F, F210Y
modifications: synthetic sequence of chimeric LGIC
B3: the “YFP fluorescence quenching using CNL001 (percent quench)” value under setting [1] amounted to 21.932%; the “YFP fluorescence quenching using CNL001 (percent quench)” value under setting [2] is listed as 39.689%; the “YFP fluorescence quenching using CNL001 (percent quench)” value under setting [5] worked out at 54.192%; the “YFP fluorescence quenching using CNL001 (percent quench)” value under setting [6] is listed as 64.111%; the “YFP fluorescence quenching using CNL001 (percent quench)” value under setting [9] is 71.409%; the “YFP fluorescence quenching using CNL001 (percent quench)” value under setting [10] is on record as 70.989%. Besides, the “YFP fluorescence quenching using CNL001 (percent quench)” value is, setting by setting: under setting [11], 74.148%; under setting [12], 71.722%; under setting [15], 71.378%; under setting [16], 71.411%. Besides, the “YFP fluorescence quenching using TC-5619/Bradanicline (percent quench)” value was 6.609% under setting [3]; −7.635% under setting [4]; 4.459% under setting [7]; 69.782% under setting [8]; 77.633% under setting [13]; 72.933% under setting [14]. Besides, the “YFP fluorescence quenching using TC-6683 (percent quench)” value reads like this: (30 nM TC-6683) −22.996%; (300 nM TC-6683) −27.055%; (3 uM TC-6683) −18.611%; (30 uM TC-6683) −13.879%; (100 uM TC-6683) −21.521%. Further, the “YFP fluorescence quenching using ABT-126 (percent quench)” value (50 nM abt (ABT-126)) was −19.54%, the “YFP fluorescence quenching using ABT-126 (percent quench)” value (100 nM abt (ABT-126)) is reported as −18.28%, the “YFP fluorescence quenching using ABT-126 (percent quench)” value (300 nM abt (ABT-126)) is −16.87% and the “YFP fluorescence quenching using ABT-126 (percent quench)” value (1 uM abt (ABT-126)) was −11.77%. The “YFP fluorescence quenching (percent quench)” value runs as follows: (10 uM ach (acetylcholine)) −3.98%; (100 uM ach (acetylcholine)) −10.34%; (300 uM ach (acetylcholine)) −10.25%; (500 uM ach (acetylcholine)) −11.46%; (1 mM ach (acetylcholine)) 1.77%; (3 mM ach (acetylcholine)) 36.81%. For the same molecule, the “YFP fluorescence quenching (percent quench)” value (10 mM ach (acetylcholine)) turned out to be 74.02%. Besides, the “YFP fluorescence quenching using Varenicline, 3 nM var” value by setting is: (first column) 34.923; (second column) 28.944. Besides, the “YFP fluorescence quenching using Varenicline, 30 nM var” value is, setting by setting: (first column) 42.214; (second column) 43.015. Also, the “YFP fluorescence quenching … 300 nM var” value (first column) was found to be 47.059 and the “YFP fluorescence quenching … 300 nM var” value (second column) came out at 52.768. Further, the “YFP fluorescence quenching … 500 nM var” value (first column) is 59.542 and the “YFP fluorescence quenching … 500 nM var” value (second column) is 62.641. Moreover, the “YFP fluorescence quenching using Varenicline, 1 uM var” value came to 71.449 (first column) and 69.145 (second column).

B4: COAD1055 (protein)
chain: B1 chain with F101W, Y115E, F210W
modifications: synthetic sequence of chimeric LGIC
B4 gave an EC50 of 23.5 nM.
